These results are taken from PMC6443806 (Scientific Reports, 2019).

For one data set, the target named is His54 (UniProt position 515, KNAVRHNLSLA). The experiment in a line: stability (GdmCl equilibrium unfolding followed by intrinsic Trp fluorescence) with Wyman-Tanford linkage analysis. The settings on record: 37 °C, Not stated for the unfolding buffer (standard buffer contains 150 mM NaCl). GdmCl 0-6 M in the unfolding series., buffer at different pH values (composition not restated; standard buffer is 20 mM HEPES, 150 mM NaCl, 2 mM β-mercaptoethanol) supplemented with GdmCl, DNA-free.

Data set [1] deals with T1, His59 (UniProt position 520, HNLSLHKCFVR). Put plainly: kinetics (SEC-monitored dimer dissociation) with Wyman-Tanford linkage analysis. The settings on record: 37 °C, 150 mM NaCl, standard buffer (20 mM HEPES, 150 mM NaCl, 2 mM β-mercaptoethanol) adjusted to different pH values, DNA-free.
Data set [2] addresses T1, His59. Put plainly: stability (GdmCl equilibrium unfolding followed by intrinsic Trp fluorescence) with Wyman-Tanford linkage analysis. The settings on record: 37 °C, Not stated for the unfolding buffer (standard buffer contains 150 mM NaCl). GdmCl 0-6 M in the unfolding series., buffer at different pH values (composition not restated; standard buffer is 20 mM HEPES, 150 mM NaCl, 2 mM β-mercaptoethanol) supplemented with GdmCl, DNA-free.

The target in data set [3] is forkhead domain of human FoxP1, H59A mutant (human). The experiment in a line: SEC; isolated dimer diluted to 5 μM in standard buffer (20 mM HEPES, 150 mM NaCl, 2 mM β-mercaptoethanol) at pH 6.0, 37 °C, aliquots over 2 h on Superdex 75; dimer to monomers; Kd from the equilibrium dimer fraction, koff from a single exponential decay, kon derived from Kd = koff/kon. On the technique in general: In gel filtration, larger molecules generally elute earlier.

Data set [4] shares this target. Put plainly: SEC; isolated dimer diluted to 5 μM in standard buffer (20 mM HEPES, 150 mM NaCl, 2 mM β-mercaptoethanol) at pH 7.8, 37 °C, aliquots over 2 h on Superdex 75; dimer to monomers; Kd from the equilibrium dimer fraction, koff from a single exponential decay, kon derived from Kd = koff/kon.
Data set [5] shares this target. Put plainly: SEC; isolated dimer diluted to 5 μM in standard buffer (20 mM HEPES, 150 mM NaCl, 2 mM β-mercaptoethanol) at pH 5.0, 37 °C, aliquots over 2 h on Superdex 75; dimer to monomers; Kd from the equilibrium dimer fraction, koff from a single exponential decay, kon derived from Kd = koff/kon.
Data set [6] deals with the molecule itself. The experiment in a line: SEC; isolated dimer diluted to 5 μM in standard buffer (20 mM HEPES, 150 mM NaCl, 2 mM β-mercaptoethanol) at pH 6.0, 37 °C, aliquots over 2 h on Superdex 75; dimer to monomers; Kd from the equilibrium dimer fraction, koff from a single exponential decay, kon derived from Kd = koff/kon.
Data set [7] concerns the molecule itself. Put plainly: SEC; isolated dimer diluted to 5 μM in standard buffer (20 mM HEPES, 150 mM NaCl, 2 mM β-mercaptoethanol) at pH 7.0, 37 °C, aliquots over 2 h on Superdex 75; dimer to monomers; Kd from the equilibrium dimer fraction, koff from a single exponential decay, kon derived from Kd = koff/kon.
Data set [8] concerns the molecule itself. Put plainly: SEC; isolated dimer diluted to 5 μM in standard buffer (20 mM HEPES, 150 mM NaCl, 2 mM β-mercaptoethanol) at pH 5.5, 37 °C, aliquots over 2 h on Superdex 75; dimer to monomers; Kd from the equilibrium dimer fraction, koff from a single exponential decay, kon derived from Kd = koff/kon.
Data set [9] deals with the molecule itself. Put plainly: SEC; isolated dimer diluted to 5 μM in standard buffer (20 mM HEPES, 150 mM NaCl, 2 mM β-mercaptoethanol) at pH 5.0, 37 °C, aliquots over 2 h on Superdex 75; dimer to monomers; Kd from the equilibrium dimer fraction, koff from a single exponential decay, kon derived from Kd = koff/kon.
Data set [10] concerns the molecule itself. Put plainly: SEC; isolated dimer diluted to 5 μM in standard buffer (20 mM HEPES, 150 mM NaCl, 2 mM β-mercaptoethanol) at pH 7.8, 37 °C, aliquots over 2 h on Superdex 75; dimer to monomers; Kd from the equilibrium dimer fraction, koff from a single exponential decay, kon derived from Kd = koff/kon.
Where [11] appears, read: monomeric folding intermediate (I).

One may read the pKa as the negative logarithm of the acid dissociation constant. Turning to “Forkhead box protein P1 (FoxP1), forkhead DNA-binding domain, H59A mutant (Homo sapiens; H59A)”, the pKa amounted to 5.3 with His54 (setting [11]) and 5.9 in the data set with His54 (unfolded state (U)).

In the case of “Forkhead box protein P1 (FoxP1), forkhead DNA-binding domain, wild type (Homo sapiens)”, the pKa is listed as 5.5 with His59 [1] (domain-swapped dimer (D)); 7.3 in the data set with His59 [1] (monomer (M)); 5.5 with His59 [1] (transition state (‡) for domain swapping); 5.7 in the data set with His59 [2] (setting [11]); 7.7 with His59 [2] (unfolded state (U)).

As a reminder, the Kd is the constant that tells how readily two partners part at equilibrium. For orientation: koff means the rate constant with which the complex falls apart. A higher koff goes with fast dissociation. As usually defined, the kon is the second-order rate constant of association. The low end stands for slow association, the high end for fast association. As to “forkhead domain of human FoxP1, H59A mutant (domain or fragment)”, in data set [3], the Kd was determined as 5.9 µM, the koff turned out to be 0.000628 s⁻¹ and the kon is 107 M⁻¹ s⁻¹. In data set [4], this molecule came in with a Kd of 7.5 µM, a koff of 0.000723 s⁻¹ and a kon of 96.7 M⁻¹ s⁻¹. In [5], this molecule returned a Kd of 7.9 µM, a koff of 0.000988 s⁻¹ and a kon of 125 M⁻¹ s⁻¹.

B1: forkhead domain of human FoxP1, wild type (domain or fragment)
chain: AEVRPPFTYASLIRQAILESPEKQLTLNEIYNWFTRMFAYFRRNAATWKNAVRHNLSLHKCFVRVENVKGAVWTVDEVEFQKRRPQK
As for B1, the equilibrium dissociation constant (Kd) stood at 3.7 ± 0.3 µM in data set [6]; 800 ± 100 nM in data set [7]; 13.1 ± 0.2 µM in data set [8]; 31.2 ± 0.3 µM in [9]; 600 ± 100 nM in data set [10]. Also, the off-rate constant (koff) worked out at 0.000553 s⁻¹ in data set [6]; 0.00113 s⁻¹ in data set [7]; 0.000675 s⁻¹ in data set [8]; 0.00235 s⁻¹ in [9]; 0.00106 s⁻¹ in [10]. The on-rate constant (kon) in data set [6] worked out at 150 M⁻¹ s⁻¹; in data set [7], 1340 M⁻¹ s⁻¹; in data set [8] it was 51.7 M⁻¹ s⁻¹; in [9], 58.3 M⁻¹ s⁻¹; in data set [10], 1790 M⁻¹ s⁻¹.
